This test addresses interferon gamma receptors on HeLa cells (UniProt P15260). The test can be described thus: cell-based or functional assay.
UniProt P15260, sequence (P15260 18-489 limits assumed): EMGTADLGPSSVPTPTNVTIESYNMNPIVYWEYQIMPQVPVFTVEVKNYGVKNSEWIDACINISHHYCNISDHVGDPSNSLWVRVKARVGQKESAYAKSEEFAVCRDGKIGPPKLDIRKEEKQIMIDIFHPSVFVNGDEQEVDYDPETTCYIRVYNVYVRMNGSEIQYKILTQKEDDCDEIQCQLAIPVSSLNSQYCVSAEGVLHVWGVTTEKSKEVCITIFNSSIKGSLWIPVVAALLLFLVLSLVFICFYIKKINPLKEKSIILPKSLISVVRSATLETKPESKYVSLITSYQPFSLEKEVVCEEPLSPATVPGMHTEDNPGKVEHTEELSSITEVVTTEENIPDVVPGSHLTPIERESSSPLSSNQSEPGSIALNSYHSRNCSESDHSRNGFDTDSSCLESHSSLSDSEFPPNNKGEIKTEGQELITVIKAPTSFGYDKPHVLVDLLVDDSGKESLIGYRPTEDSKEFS

With “interferon gamma variant N16C+S99T (full-length) PEGylated with mPEG-OPSS (10 kDa) (from UniProt P01579 24-161) (ligand)”, the specific activity as percent of the corresponding non-PEGylated interferon gamma variant, Primary Assay is 15% and the specific activity, Primary Assay (ISRE-luciferase reporter in HeLa cells) turned out to be 1.3e+06 AU/mg.
In turn, “interferon gamma E38N+S40T+S99T variant (full-length, expressed from pIGY-54 in CHO K1 cells) (from UniProt P01579 24-161) (ligand)” yielded an interferon gamma activity, Primary Assay (ISRE-luciferase reporter in HeLa cells), culture medium 24 h after transfection of 1.3e+07 AU/ml.
As to “interferon gamma variant N59C+S99T (full-length) PEGylated with mPEG-MAL (5 kDa) (from UniProt P01579 24-161) (ligand)”, the specific activity as percent of the corresponding non-PEGylated interferon gamma variant, Primary Assay came to 15% and the specific activity, Primary Assay (ISRE-luciferase reporter in HeLa cells) is 2.4e+06 AU/mg.
Take “interferon gamma S99T variant (full-length, expressed from pIGY-48 in CHO K1 cells) (from UniProt P01579 24-161) (ligand)”: the interferon gamma activity, Primary Assay (ISRE-luciferase reporter in HeLa cells), culture medium 24 h after transfection was determined as 5.1e+06 AU/ml.

The values above are taken from patent US20030138403A1.
